The numbers were not newly measured in patent US20040096894A1, “Crystal structures of P- selectin, P- and E-selectin complexes, and uses thereof” (priority 2000, published 2004), which cites them from elsewhere.

This series has as its target T1, full-length neutrophil PSGL-1 (Homo sapiens, UniProt Q14242).
T1 construct: to full-length neutrophil PSGL-1; host or cells: neutrophils
T1 sequence (Q14242 42-412): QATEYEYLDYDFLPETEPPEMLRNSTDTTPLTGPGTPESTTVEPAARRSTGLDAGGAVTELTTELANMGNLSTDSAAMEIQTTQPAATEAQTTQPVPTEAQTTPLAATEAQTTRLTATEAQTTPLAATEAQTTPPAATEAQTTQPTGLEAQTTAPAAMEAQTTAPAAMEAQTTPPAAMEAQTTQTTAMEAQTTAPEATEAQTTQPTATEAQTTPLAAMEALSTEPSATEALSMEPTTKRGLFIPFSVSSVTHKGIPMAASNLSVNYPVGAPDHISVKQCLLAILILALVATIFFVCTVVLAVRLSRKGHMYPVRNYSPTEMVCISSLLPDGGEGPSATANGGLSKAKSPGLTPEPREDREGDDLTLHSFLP
To be noted: previously determined values (Mehta et al., 1998); read-out: KD for binding to full-length neutrophil PSGL-1.

B1: soluble P-selectin: Soluble P-selectin of the literature study (Mehta et al., 1998) (protein, UniProt P16109 42-771, looked up)
extracellular domain: WTYHYSTKAYSWNISRKYCQNRYTDLVAIQNKNEIDYLNKVLPYYSSYYWIGIRKNNKTWTWVGTKKALTNEAENWADNEPNNKRNNEDCVEIYIKSPSAPGKWNDEHCLKKKHALCYTASCQDMSCSKQGECLETIGNYTCSCYPGFYGPECEYVRECGELELPQHVLMNCSHPLGNFSFNSQCSFHCTDGYQVNGPSKLECLASGIWTNKPPQCLAAQCPPLKIPERGNMTCLHSAKAFQHQSSCSFSCEEGFALVGPEVVQCTASGVWTAPAPVCKAVQCQHLEAPSEGTMDCVHPLTAFAYGSSCKFECQPGYRVRGLDMLRCIDSGHWSAPLPTCEAISCEPLESPVHGSMDCSPSLRAFQYDTNCSFRCAEGFMLRGADIVRCDNLGQWTAPAPVCQALQCQDLPVPNEARVNCSHPFGAFRYQSVCSFTCNEGLLLVGASVLQCLATGNWNSVPPECQAIPCTPLLSPQNGTMTCVQPLGSSSYKSTCQFICDEGYSLSGPERLDCTRSGRWTDSPPMCEAIKCPELFAPEQGSLDCSDTRGEFNVGSTCHFSCDNGFKLEGPNNVECTTSGRWSATPPTCKGIASLPTPGVQCPALTTPGQGTMYCRHHPGTFGFNTTCYFGCNAGFTLIGDSTLSCRPSGQWTAVTPACRAVKCSELHVNKPIAMNCSNLWGNFSYGSICSFHCLEGQLLNGSAQTACQENGHWSTTVPTCQAGPLTIQEA
modifications: extracellular domain
With B1, the Kd (as a rule, the free concentration of one partner at which half of the binding sites on the other are occupied at equilibrium, for simple one-to-one binding) was 322 nM.
